According to PMC4906244:

Test system: His6-ComPsub (Neisseria subflava NJ9703), PDB:2NBA_1
Test: SPR
Conditions: DNA immobilized on neutravidin chip; EMSA: 20 mM Tris-Cl pH 8, 50 mM NaCl, 2.5 mM Mg2+, ambient temperature; SPR: 20 mM Tris pH 8, 150 mM NaCl, 0.05% Tween 20, 25 C; NMR: 50 mM sodium phosphate pH …

## TGACCAGGCCGTCTGAACAAAC (double strand) [DUSvar1 ds primer (biotinylated)]
  Kd: 52.7 µM
